# Measurements from the supplement of paper PMC6757056.
# ± gives the standard deviation of the averaged measurements.
# B1: library; a variant is named by its letters at N, in order (parent)
# chain: GCUGUCACCGGUGCUUGGUACGUUAUAUUCAGCCGGUCUGAUGAGUCUNNNNNNAGACGAAACAGC
# What was measured:
# (6R,S)-folinic acid [1] = variants of: B1; assay: normalized RNA/DNA level without ligand (relative to sTRSVctl = 100) (log10 (% of sTRSVctl)); HEK293T overexpressing SLC46A1; higher = less ribozyme self-cleavage, higher mRNA level; conditions: without (6R,S)-folinic acid; ligand present: no
# Method in brief: (§1)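 Ribozyme switch library plasmids with mCherry reporters (eGFP in certain ligand experiments) went into HEK293T cells at 4 µg per 6-well well. Where ligand was used, it was applied 1 h before transfection, and total RNA was extracted with EDTA 72 h later for reverse transcription, amplification, barcoding and sequencing. RNA level is the RNA-to-DNA read ratio normalized to a spiked-in non-cleaving sequence or to the leading sequences, then scaled and log-transformed. Scaling was ×100 with log10, the leading set comprised 25 sequences, and the cutoff was ≥100 DNA reads.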
# (6R,S)-folinic acid [2] = variants of: B1; assay: normalized RNA/DNA level with ligand (relative to sTRSVctl = 100) (log10 (% of sTRSVctl)); HEK293T overexpressing SLC46A1; ligand concentration (+) RNA-Seq: 6 mM; higher = less ribozyme self-cleavage, higher mRNA level; conditions: with (6R,S)-folinic acid; ligand present: yes
# Method in brief: as §1
Variant,"normalized RNA/DNA level without ligand (log10) ((6R,S)-folinic acid [1])","normalized RNA/DNA level with ligand (log10) ((6R,S)-folinic acid [2])"
CGGCCC,2.09 ± 0.035,2.04 ± 0.032
CGUACA,2.01 ± 0.0077,2.041 ± 0.02
CCAGGG,1.99 ± 0.021,2.038 ± 0.018
UGGCAU,1.965 ± 0.014,2.01 ± 0.021
CCUGUG,2.0488 ± 0.00073,2.03 ± 0.038
UUCGAU,1.954 ± 0.0023,2.02 ± 0.033
GUCAUU,2.068 ± 0.0023,2.007 ± 0.0048
UCUAUA,2 ± 0.032,2.04 ± 0.025
AUCGCG,1.926 ± 0.013,2.02 ± 0.019
AAGGCU,1.995 ± 0.011,2.019 ± 0.0048
GUAUCG,2.028 ± 0.017,2.05 ± 0.041
CAGUUU,1.989 ± 0.011,2.03 ± 0.039
GUGUUG,1.9429 ± 0.0015,2.014 ± 0.015
UGGCUU,2.021 ± 0.00062,2.043 ± 0.0081
GUCAGC,1.979 ± 0.018,2.02 ± 0.033
GUCAGU,2.03 ± 0.026,2.04 ± 0.038
GGCUUC,2.085 ± 0.0026,2.08 ± 0.067
AGAUGC,2.017 ± 0.0026,2.03 ± 0.021
AUCCGU,2.023 ± 0.011,2.01 ± 0.027
GUUUGG,1.985 ± 0.015,2.03 ± 0.044

Variant,"normalized RNA/DNA level without ligand (log10) ((6R,S)-folinic acid [1])","normalized RNA/DNA level with ligand (log10) ((6R,S)-folinic acid [2])"
UAACCC,1.991 ± 0.011,2 ± 0.035
AGCGCC,2.058 ± 0.017,2.03 ± 0.037
UCUCUG,1.89 ± 0.011,1.96 ± 0.027
CAGUGC,2.011 ± 0.014,2 ± 0.026
CUAUCA,2.03 ± 0.035,2.0307 ± 0.00092
AUUAGC,1.987 ± 0.0093,2.021 ± 0.0097
UAGAAC,1.979 ± 0.012,2 ± 0.033
CAUUCC,2.06 ± 0.033,2.02 ± 0.06
ACCGUA,1.969 ± 0.0072,2.01 ± 0.048
CUAGCC,2.024 ± 0.015,1.98 ± 0.036
AUGCUA,2.021 ± 0.0056,2.01 ± 0.024
UAAUAA,1.931 ± 0.0048,1.985 ± 0.013
GAGGCG,2.003 ± 0.014,2.05 ± 0.055
GCCACU,2.022 ± 0.011,2.01 ± 0.029
CGUUCG,2.0527 ± 1.7e-05,2.04 ± 0.047
CUUAAG,1.913 ± 0.0089,1.986 ± 0.0033
CACGGA,1.99 ± 0.038,2.02 ± 0.029
CCCGUU,2.057 ± 0.011,2.04 ± 0.023
CCCGUG,2.018 ± 0.016,2.012 ± 0.014
CCAUAA,1.98 ± 0.023,1.97 ± 0.027

Variant,"normalized RNA/DNA level without ligand (log10) ((6R,S)-folinic acid [1])","normalized RNA/DNA level with ligand (log10) ((6R,S)-folinic acid [2])"
CCGCCG,2.06 ± 0.024,2.08 ± 0.03
CUGUUG,2.04 ± 0.035,2.03 ± 0.027
GAGCAA,1.96 ± 0.025,2 ± 0.049
GCAUCA,2.023 ± 0.013,2.03 ± 0.022
GGUUUU,2 ± 0.021,1.99 ± 0.033
CUACCU,2.044 ± 0.02,2.01 ± 0.026
AAUUCA,1.9759 ± 0.00044,2 ± 0.041
AACACA,1.99 ± 0.011,2.01 ± 0.037
AACACU,2 ± 0.032,2 ± 0.043
CUGGUG,1.982 ± 0.0025,2.04 ± 0.037
GUCCUG,2.02 ± 0.034,2.01 ± 0.021
UUGUAA,1.943 ± 0.011,2.003 ± 0.016
UUCGUG,1.81 ± 0.027,1.99 ± 0.067
GAACAC,1.998 ± 0.018,2.014 ± 0.0037
CGUGUC,2.0808 ± 0.0006,2.07 ± 0.043
UCUAGC,2.03 ± 0.024,2.02 ± 0.051
AAUCCC,2.023 ± 0.003,2 ± 0.043
CCAUUG,1.97 ± 0.031,2.015 ± 0.0036
